Results from US20260209386A1 (MYTHIC THERAPEUTICS, published 2026).
Substitutions are numbered along the chain they refer to.

T1: Human PTK7 Protein, His Tag, Acro Biosystems (human, UniProt Q13308 31-704)
T1 construct: Bought recombinant protein; also called CCK4; not shown: His tag
T1 sequence: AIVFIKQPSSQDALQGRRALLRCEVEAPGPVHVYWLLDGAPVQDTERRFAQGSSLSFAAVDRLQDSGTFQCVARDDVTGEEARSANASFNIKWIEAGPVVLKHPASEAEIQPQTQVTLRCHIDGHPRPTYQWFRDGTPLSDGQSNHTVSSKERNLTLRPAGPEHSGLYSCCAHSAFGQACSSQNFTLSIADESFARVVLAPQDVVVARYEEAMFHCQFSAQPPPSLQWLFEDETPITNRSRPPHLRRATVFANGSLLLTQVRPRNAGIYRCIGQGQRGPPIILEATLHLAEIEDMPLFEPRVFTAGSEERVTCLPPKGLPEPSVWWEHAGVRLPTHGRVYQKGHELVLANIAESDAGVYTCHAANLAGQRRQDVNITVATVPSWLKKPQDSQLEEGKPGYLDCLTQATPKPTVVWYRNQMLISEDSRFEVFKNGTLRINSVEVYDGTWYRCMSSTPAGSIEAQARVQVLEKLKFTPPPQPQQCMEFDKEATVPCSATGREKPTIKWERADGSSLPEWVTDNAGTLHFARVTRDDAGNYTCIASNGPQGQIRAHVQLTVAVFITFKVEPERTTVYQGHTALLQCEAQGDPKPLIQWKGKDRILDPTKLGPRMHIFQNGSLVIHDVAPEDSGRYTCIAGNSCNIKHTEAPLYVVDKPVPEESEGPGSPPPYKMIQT

B1: MYT11256 (antibody, V domains shown)
VH: EVQLVESGGGLVQPGGSLRLSCTASGIHLSRYSMGWVRQAPGKGLEWVGIISYGGSTYYASWAKGRFTISRDTSKNTVYLQMNSLRAEDTAVYFCARVGYPGYSGYGYAFDAFDPWGQGTLVTVSS
VL: EIVMTQSPSTLSASVGDRVIITCQSSKSVYNDNWLSWYQQKPGKAPKLLIYGASTLASGVPSRFSGSGSGAEFTLTISSLQPDDFATYYCAGGYSSSSDNGFGQGTKLTVL
notes: MYT9792 variant, His at VH 28 (H1 03)
B2: MYT11260 (antibody, V domains shown)
VH: B1 VH with H28D, Y32H
VL: B1 VL
notes: MYT9792 variant, His at VH 32 (H1 07)
B3: MYT11311 (antibody, V domains shown)
VH: B1 VH with H28D
VL: B1 VL with N31H
notes: MYT9792 variant, His at VL 31 (L1 08)
B4: MYT11262 (antibody, V domains shown)
VH: B1 VH with H28D, M34H
VL: B1 VL
notes: MYT9792 variant, His at VH 34 (H1 09)
B5: MYT11290 (antibody, V domains shown)
VH: B1 VH with H28D, Y106H
VL: B1 VL
B6: MYT11318 (antibody, V domains shown)
VH: B1 VH with H28D
VL: B1 VL with A53H
notes: MYT9792 variant, His at VL 53 (L2 02)
B7: MYT11308 (antibody, V domains shown)
VH: B1 VH with H28D
VL: B1 VL with S28H
notes: MYT9792 variant, His at VL 28 (L1 05)
B8: MYT11319 (antibody, V domains shown)
VH: B1 VH with H28D
VL: B1 VL with S54H
notes: MYT9792 variant, His at VL 54 (L2 03)
B9: MYT11288 (antibody, V domains shown)
VH: B1 VH with H28D, S104H
VL: B1 VL
notes: MYT9792 variant, His at VH 104 (H3 09)
B10: MYT11329 (antibody, V domains shown)
VH: B1 VH with H28D
VL: B1 VL with S96H
notes: MYT9792 variant, His at VL 96 (L3 06)
B11: MYT11273 (antibody, V domains shown)
VH: B1 VH with H28D, Y59H
VL: B1 VL
notes: MYT9792 variant, His at VH 59 (H2 10)
B12: MYT11298 (antibody, V domains shown)
VH: B1 VH with H28D, D114H
VL: B1 VL
B13: MYT11323 (antibody, V domains shown)
VH: B1 VH with H28D
VL: B1 VL with S58H
notes: MYT9792 variant, His at VL 58 (L2 07)
B14: MYT11304 (antibody, V domains shown)
VH: B1 VH with H28D
VL: B1 VL with Q24H
notes: MYT9792 variant, His at VL 24 (L1 01)
B15: MYT11338 (antibody, V domains shown)
VH: B1 VH with H28D
VL: B1 VL with N100A
notes: MYT9792 variant, Ala at VL 100 (L3 10)
B16: MYT11254 (antibody, V domains shown)
VH: B1 VH with G26H, H28D
VL: B1 VL
notes: MYT9792 variant, His at VH 26 (H1 01)
B17: MYT11275 (antibody, V domains shown)
VH: B1 VH with H28D, S61H
VL: B1 VL
notes: MYT9792 variant, His at VH 61 (H2 12)
B18: MYT11255 (antibody, V domains shown)
VH: B1 VH with I27H, H28D
VL: B1 VL
notes: MYT9792 variant, His at VH 27 (H1 02)
B19: MYT11268 (antibody, V domains shown)
VH: B1 VH with H28D, G54H
VL: B1 VL
notes: MYT9792 variant, His at VH 54 (H2 05)
B20: MYT11301 (antibody, V domains shown)
VH: B1 VH with H28A
VL: B1 VL
notes: MYT9792 variant, Ala at VH 28 (H1 03)
B21: MYT11314 (antibody, V domains shown)
VH: B1 VH with H28D
VL: B1 VL with W34H
notes: MYT9792 variant, His at VL 34 (L1 11)
B22: MYT11317 (antibody, V domains shown)
VH: B1 VH with H28D
VL: B1 VL with G52H
notes: MYT9792 variant, His at VL 52 (L2 01)
B23: MYT11312 (antibody, V domains shown)
VH: B1 VH with H28D
VL: B1 VL with D32H
notes: MYT9792 variant, His at VL 32 (L1 09)
B24: MYT11277 (antibody, V domains shown)
VH: B1 VH with H28D, A63H
VL: B1 VL
notes: MYT9792 variant, His at VH 63 (H2 14)
B25: MYT11299 (antibody, V domains shown)
VH: B1 VH with H28D, P115H
VL: B1 VL
B26: MYT11266 (antibody, V domains shown)
VH: B1 VH with H28D, S52H
VL: B1 VL
notes: MYT9792 variant, His at VH 52 (H2 03)
B27: MYT11306 (antibody, V domains shown)
VH: B1 VH with H28D
VL: B1 VL with S26H
notes: MYT9792 variant, His at VL 26 (L1 03)
B28: MYT11313 (antibody, V domains shown)
VH: B1 VH with H28D
VL: B1 VL with N33H
notes: MYT9792 variant, His at VL 33 (L1 10)
B29: MYT11265 (antibody, V domains shown)
VH: B1 VH with H28D, I51H
VL: B1 VL
notes: MYT9792 variant, His at VH 51 (H2 02)
B30: MYT11270 (antibody, V domains shown)
VH: B1 VH with H28D, S56H
VL: B1 VL
notes: MYT9792 variant, His at VH 56 (H2 07)
B31: MYT11274 (antibody, V domains shown)
VH: B1 VH with H28D, A60H
VL: B1 VL
notes: MYT9792 variant, His at VH 60 (H2 11)
B32: MYT11300 (antibody, V domains shown)
VH: B1 VH with H28D, F94Y
VL: B1 VL
B33: MYT11334 (antibody, V domains shown)
VH: B1 VH with H28D
VL: B1 VL with G101H
notes: MYT9792 variant, His at VL 101 (L3 11)
B34: MYT11320 (antibody, V domains shown)
VH: B1 VH with H28D
VL: B1 VL with T55H
notes: MYT9792 variant, His at VL 55 (L2 04)
B35: MYT11278 (antibody, V domains shown)
VH: B1 VH with H28D, K64H
VL: B1 VL
notes: MYT9792 variant, His at VH 64 (H2 15)
B36: MYT11336 (antibody, V domains shown)
VH: B1 VH with H28D
VL: B1 VL with D32A
notes: MYT9792 variant, Ala at VL 32 (L1 09)
B37: MYT11269 (antibody, V domains shown)
VH: B1 VH with H28D, G55H
VL: B1 VL
notes: MYT9792 variant, His at VH 55 (H2 06)
B38: MYT11286 (antibody, V domains shown)
VH: B1 VH with H28D, G102H
VL: B1 VL
notes: MYT9792 variant, His at VH 102 (H3 07)
B39: MYT11276 (antibody, V domains shown)
VH: B1 VH with H28D, W62H
VL: B1 VL
notes: MYT9792 variant, His at VH 62 (H2 13)

Target: T1, Human PTK7 Protein, His Tag, Acro …
Test: BLI, anti-human Fc capture, 50 nM PTK7; 2 = substantially similar binding relative to parent

Binding result, binds:
B1, B2, B3, B4, B5, B6, B7, B8, B9, B10, B11, B12, B13, B14, B15, B16, B17, B18, B19, B20, B21, B22, B23, B24, B25, B26, B27, B28, B29, B30, B31, B32, B33, B34, B35, B36, B37, B38, B39
